Experimental data as given in paper PMC5912465, “The N-terminal domain of a tick evasin is critical for chemokine binding and neutralization and confers specific binding activity to other evasins” (The Journal of Biological Chemistry, 2018).

T1: N-terminally tagged P672 (P672_RHIPU), glycosylated (Rhipicephalus pulchellus, UniProt L7MC74 22-125)
T1 construct: source: HEK293F, transiently transfected, purified from culture supernatant (nickel IMAC, size exclusion chromatography)
T1 sequence: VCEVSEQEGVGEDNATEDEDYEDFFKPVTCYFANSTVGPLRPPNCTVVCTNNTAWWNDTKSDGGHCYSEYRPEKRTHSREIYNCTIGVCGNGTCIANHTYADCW

T2: P672 with residues Val-1—Thr-16 truncated (Rhipicephalus pulchellus, UniProt L7MC74 38-125)
T2 sequence: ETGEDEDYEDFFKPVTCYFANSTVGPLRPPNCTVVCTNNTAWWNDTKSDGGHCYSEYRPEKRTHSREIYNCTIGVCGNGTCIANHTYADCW

T3: partially deglycosylated N-terminally tagged P672 (Rhipicephalus pulchellus, UniProt L7MC74 22-125)
T3 sequence: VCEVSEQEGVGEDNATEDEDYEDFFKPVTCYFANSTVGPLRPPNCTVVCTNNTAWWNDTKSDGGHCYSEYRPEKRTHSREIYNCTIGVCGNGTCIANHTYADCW

B1: CCL18 (ligand, human, UniProt P55774 21-89, looked up)
chain: AQVGTNKELCCLVYTSWQIPQKFIVDYSETSPQCPKPGVILLTKRGRQICADPNKKWVQKYISDLKLNA
B2: CCL3 (ligand, human, UniProt P10147 24-92, looked up)
chain: SLAADTPTACCFSYTSRQIPQNFIADYFETSSQCSKPGVIFLTKRSRQVCADPSEEWVQKYVSDLELSA
B3: CCL14 (ligand, human, UniProt Q16627 20-93, looked up)
chain: TKTESSSRGPYHPSECCFTYTTYKIPRQRIMDYYETNSQCSKPGIVFITKRGHSVCTNPSDKWVQDYIKDMKEN
B4: CCL23 (ligand, human, UniProt P55773 22-120, looked up)
chain: RVTKDAETEFMMSKLPLENPVLLDRFHATSADCCISYTPRSIPCSLLESYFETNSECSKPGVIFLTKKGRRFCANPSDKQVQVCMRMLKLDTRIKTRKN
B5: CCL8 (human chemokine panel) (ligand, UniProt P80075 24-99, looked up)
chain: QPDSVSIPITCCFNVINRKIPIQRLESYTRITNIQCPKEAVIFKTKRGKEVCADPKERWVRDSMKHLDQIFQNLKP
notes: also called MCP-2
B6: human CCL8 (residues Gln-24 to Pro-99), expressed in E. coli (ligand, UniProt P80075 24-99, looked up)
chain: QPDSVSIPITCCFNVINRKIPIQRLESYTRITNIQCPKEAVIFKTKRGKEVCADPKERWVRDSMKHLDQIFQNLKP
notes: also called Purified CCL8
B7: CCL7 (ligand)
chain: not shown
notes: also called MCP-3
B8: CCL1 (ligand, human, UniProt P22362 24-96, looked up)
chain: KSMQVPFSRCCFSFAEQEIPLRAILCYRNTSSICSNEGLIFKLKRGKEACALDTVGWVQRHRKMLRHCPSKRK
B9: CCL3L1 (ligand, human, UniProt P16619 24-93, looked up)
chain: APLAADTPTACCFSYTSRQIPQNFIADYFETSSQCSKPSVIFLTKRGRQVCADPSEEWVQKYVSDLELSA
B10: CCL11 (ligand)
chain: not shown
B11: CCL16 (ligand, human, UniProt O15467 24-120, looked up)
chain: QPKVPEWVNTPSTCCLKYYEKVLPRRLVVGYRKALNCHLPAIIFVTKRNREVCTNPNDDWVQEYIKDPNLPLLPTRNLSTVKIITAKNGQPQLLNSQ

Key:
Conditions in all cases: both partners purified
[1] = biological target: T1, N-terminally tagged P672 (P672_RHIPU), …; experiment: BLI
[2] = biological target: T2, P672 with residues Val-1—Thr-16 …; experiment: BLI
[3] = biological target: T3, partially deglycosylated N-terminally …; experiment: BLI
[4] = biological target: T3, partially deglycosylated N-terminally …; experiment: native MS

| Binder | Kd [1] | binding result [1] | also measured |
| --- | --- | --- | --- |
| B1 | < 10 nM |  |  |
| B2 |  | binds |  |
| B3 | < 10 nM |  |  |
| B4 | < 10 nM |  |  |
| B5 |  |  | Kd [2]: 30.4 nM; Kd [3]: 72.5 nM |
| B6 |  |  | stoichiometry N [4]: 1 |
| B7 |  | binds |  |
| B8 |  | binds |  |
| B9 |  | binds |  |
| B10 | < 10 nM |  |  |
| B11 |  | binds |  |
